From US20230051847A1 (Johns Hopkins, published 2023) come the findings set out here.

For test [1], the target named is T1, CHD4 peptide (…) on HLA-A1 (human).
T1 construct: whole, on cells; on peptide-pulsed SigM5 cells
Briefly: co-culture of peptide-pulsed SigM5 cells with T cells and L2-U scDb; IFNγ release.
Procedure: (A) Each amino acid of the G12V peptide was systematically changed to the other 19 amino acids. T2A3 cells were pulsed with 10 μM of the G12V peptide library. […] Cells were incubated for 24 hour and assayed for secreted IFNγ. […] Cells were incubated for 24 hours and assayed for secreted IFNγ. […] Cells were incubated for 24 hours and assayed for secreted IFNγ.
The library of peptides was generated by systematically substituting each amino acid of the original peptides with the other 19 amino acids. […] Recognition of the variant peptides was evaluated through IFNγ release (FIG. 44, A and B, FIG. 63, A and B). […] Next, using a 20% cognate peptide reactivity as a cutoff for permissive amino acids at each position, decamer binding motifs were generated for each candidate target peptide (Materials and Methods).

In test [2] the target is T2, RAS Q61WT[55-64] pHLA-A1 (human).
T2 construct: also called Q61WT pHLA-A1; H/K/N RAS WT(55-64) peptide on HLA-A1
Briefly: ELISA, scDb at 10 nM on titrated biotinylated pHLA-A1 on streptavidin plate; protein L, anti-protein L HRP.

Test [3] deals with T2, RAS Q61WT[55-64] pHLA-A1. Nature of the test: flow cytometry, phage on peptide-pulsed SigM5 cells; anti-M13, anti-rabbit PE.
The target in test [4] is T2, RAS Q61WT[55-64] pHLA-A1. Nature of the test: ELISA, scDb at 10 nM on titrated biotinylated pHLA-A1 on streptavidin plate; protein L, anti-protein L HRP. This is another data set of the same source.
Test [5] deals with T2, RAS Q61WT[55-64] pHLA-A1. Briefly: flow cytometry, phage on peptide-pulsed SigM5 cells; anti-M13, anti-rabbit PE. This is another data set of the same source.
Test [6] addresses T2, RAS Q61WT[55-64] pHLA-A1. Described as above. This is another data set of the same source.
Test [7] has as its target T2, RAS Q61WT[55-64] pHLA-A1. Briefly: ELISA, scDb at 10 nM on titrated biotinylated pHLA-A1 on streptavidin plate; protein L, anti-protein L HRP. This is another data set of the same source.
The target of test [8] is p53^WT/HLA-A*02:01 pHLA (human). Nature of the test: ELISA, scDb on biotinylated pHLA on streptavidin plate; protein L, anti-protein L HRP.
Procedure: Streptavidin-coated, 96-well plates (R&D Systems, Minneapolis, Minn., CP004) were coated with 50 ng of biotinylated HLA-A*02:01 pHLA monomers in 50 μL of blocking buffer (PBS with 0.5% BSA, 2 mM EDTA, and 0.1% sodium azide) or 25 ng of recombinant human CD3/6 (Acro Biosystems, DE, CDD-H52W4) at 4° C. overnight. […] Serial dilutions of scDb or IgG was incubated on the plate for 1 hour at RT and washed.

B1: L2-U scDb (bispecific antibody)
chain: DIQMTQSPSSLSASVGDRVTITCRASQDVNTAVAWYQQKPGKAPKLLIYSASFLYSGVPSRFSGSRSGTDFTLTISSLQPEDFATYYCQQAVSYPWTFGQGTKVEIKGGGGSEVQLQQSGPELVKPGASMKISCKASGYSFTGYTMNWVKQSHGKNLEWMGLINPYKGVSTYNQKFKDKATLTVDKSSSTAYMELLSLTSEDSAVYYCARSGYYGDSDWYFDVWGAGTTVTVSSGGGGSGGGGSGGGGSDIQMTQTTSSLSASLGDRVTISCRASQDIRNYLNWYQQKPDGTVKLLIYYTSRLHSGVPSKFSGSGSGTDYSLTISNLEQEDIATYFCQQGNTLPWTFAGGTKLEIKGGGGSEVQLVESGGGLVQPGGSLRLSCAASGFNISSSGIHWVRQAPGKGLEWVAMVYGGSGYTNYADSVKGRFTISADTSKNTAYLQMNSLRAEDTAVYYCSRWAHYSAYMDYWGQGTLVTVSSHHHHHH
notes: also called L2 single chain diabody; H/K/N RAS Q61L(55-64)-A1 cl.2 UCHT1 scDb
B1: the binding result is reported as “no binding (tested: 1 nM scDb)” in test [1] and “no binding (tested: 10 ug/mL coated pHLA-A1, scDb at 10 nM)” in test [2].

B2: H/K/N RAS Q61H_A1_cl1 (H1) (scFv)
scFv: DIQMTQSPSSLSASVGDRVTITCRASQDVNTAVAWYQQKPGKAPKLLIYSASFLYSGVPSRFSGSRSGTDFTLTISSLQPEDFATYYCQQVIYYPFTFGQGTKVEIKRTGGGSGGGGSGGGASEVQLVESGGGLVQPGGSLRLSCAASGFNLYSYAIHWVRQAPGKGLEWVALLYPDYGVTSYADSVKGRFTISADTSKNTAYLQMNSLRAEDTAVYYCSRYRSYEYSVSSYSYSAMDYWGQGTLVTVSS
notes: also called Q61H clone H1; H1 scFv
For the molecule B2, the binding result in test [3] is on record as “no binding (tested: single dose (50 µL phage supernatant))”.

B3: R6-U scDb (bispecific antibody)
chain: DIQMTQSPSSLSASVGDRVTITCRASQDVNTAVAWYQQKPGKAPKLLIYSASFLYSGVPSRFSGSRSGTDFTLTISSLQPEDFATYYCQQYSNYPLTFGQGTKVEIKGGGGSEVQLQQSGPELVKPGASMKISCKASGYSFTGYTMNWVKQSHGKNLEWMGLINPYKGVSTYNQKFKDKATLTVDKSSSTAYMELLSLTSEDSAVYYCARSGYYGDSDWYFDVWGAGTTVTVSSGGGGSGGGGSGGGGSDIQMTQTTSSLSASLGDRVTISCRASQDIRNYLNWYQQKPDGTVKLLIYYTSRLHSGVPSKFSGSGSGTDYSLTISNLEQEDIATYFCQQGNTLPWTFAGGTKLEIKGGGGSEVQLVESGGGLVQPGGSLRLSCAASGFNVFYGSMHWVRQAPGKGLEWVAFIGPDSTYTYYADSVKGRFTISADTSKNTAYLQMNSLRAEDTAVYYCSRDLGSAYAMDYWGQGTLVTVSSHHHHHH
On to B3, for which the binding result in test [4] was “no binding (tested: 10 ug/mL coated pHLA-A1, scDb at 10 nM)”.

B4: H/R/N RAS Q61R_A1_cl6 (R6) (scFv)
scFv: DIQMTQSPSSLSASVGDRVTITCRASQDVNTAVAWYQQKPGKAPKLLIYSASFLYSGVPSRFSGSRSGTDFTLTISSLQPEDFATYYCQQYSNYPLTFGQGTKVEIKRTGGGSGGGGSGGGASEVQLVESGGGLVQPGGSLRLSCAASGFNVFYGSMHWVRQAPGKGLEWVAFIGPDSTYTYYADSVKGRFTISADTSKNTAYLQMNSLRAEDTAVYYCSRDLGSAYAMDYWGQGTLVTVSS
notes: also called Q61R clone R6; R6 scFv
B4: the binding result in test [5] is “no binding (tested: single dose (50 µL phage supernatant))”.

B5: H/K/N RAS Q61L_A1_cl2 (L2) (scFv)
scFv: DIQMTQSPSSLSASVGDRVTITCRASQDVNTAVAWYQQKPGKAPKLLIYSASFLYSGVPSRFSGSRSGTDFTLTISSLQPEDFATYYCQQAVSYPWTFGQGTKVEIKRTGGGSGGGGSGGGASEVQLVESGGGLVQPGGSLRLSCAASGFNISSSGIHWVRQAPGKGLEWVAMVYGGSGYTNYADSVKGRFTISADTSKNTAYLQMNSLRAEDTAVYYCSRWAHYSAYMDYWGQGTLVTVSS
notes: also called Q61L clone L2; L2 scFv
For B5, in test [6], the binding result is on record as “no binding (tested: single dose (50 µL phage supernatant))”.

B6: H1-U scDb (bispecific antibody)
chain: DIQMTQSPSSLSASVGDRVTITCRASQDVNTAVAWYQQKPGKAPKLLIYSASFLYSGVPSRFSGSRSGTDFTLTISSLQPEDFATYYCQQVIYYPFTFGQGTKVEIKGGGGSEVQLQQSGPELVKPGASMKISCKASGYSFTGYTMNWVKQSHGKNLEWMGLINPYKGVSTYNQKFKDKATLTVDKSSSTAYMELLSLTSEDSAVYYCARSGYYGDSDWYFDVWGAGTTVTVSSGGGGSGGGGSGGGGSDIQMTQTTSSLSASLGDRVTISCRASQDIRNYLNWYQQKPDGTVKLLIYYTSRLHSGVPSKFSGSGSGTDYSLTISNLEQEDIATYFCQQGNTLPWTFAGGTKLEIKGGGGSEVQLVESGGGLVQPGGSLRLSCAASGFNLYSYAIHWVRQAPGKGLEWVALLYPDYGVTSYADSVKGRFTISADTSKNTAYLQMNSLRAEDTAVYYCSRYRSYEYSVSSYSYSAMDYWGQGTLVTVSSHHHHHH
As to B6, in test [7], the binding result is reported as “no binding (tested: 10 ug/mL coated pHLA-A1, scDb at 10 nM)”.

B7: H20-UCHT1-scDb (bispecific antibody)
chain: DIQMTQSPSSLSASVGDRVTITCRASQDVNTAVAWYQQKPGKAPKLLIYSASFLYSGVPSRFSGSRSGTDFTLTISSLQPEDFATYYCQQSNAYPITFGQGTKVEIKGGGGSEVQLQQSGPELVKPGASMKISCKASGYSFTGYTMNWVKQSHGKNLEWMGLINPYKGVSTYNQKFKDKATLTVDKSSSTAYMELLSLTSEDSAVYYCARSGYYGDSDWYFDVWGAGTTVTVSSGGGGSGGGGSGGGGSDIQMTQTTSSLSASLGDRVTISCRASQDIRNYLNWYQQKPDGTVKLLIYYTSRLHSGVPSKFSGSGSGTDYSLTISNLEQEDIATYFCQQGNTLPWTFAGGTKLEIKGGGGSEVQLVESGGGLVQPGGSLRLSCAASGFNLNSYYMHWVRQAPGKGLEWVAMIIPGYGYTNYADSVKGRFTISADTSKNTAYLQMNSLRAEDTAVYYCSRSYYMYMDYWGQGTLVTVSSHHHHHH
notes: single-chain diabody of H20 with the anti-CD3 scFv UCHT1; also called H20-scDb
As to B7, the binding result in test [8] was “binds”.
